Experimental data: patent US20100243450

Target: Mef2c (UniProt Q06413)
Settings: NECEEM; 25 mM tetraborate pH 9.4, room temperature; koff 0.022 s-1, kon 45 M-1 s-1

Chain of Mef2c (Q06413 whole entry): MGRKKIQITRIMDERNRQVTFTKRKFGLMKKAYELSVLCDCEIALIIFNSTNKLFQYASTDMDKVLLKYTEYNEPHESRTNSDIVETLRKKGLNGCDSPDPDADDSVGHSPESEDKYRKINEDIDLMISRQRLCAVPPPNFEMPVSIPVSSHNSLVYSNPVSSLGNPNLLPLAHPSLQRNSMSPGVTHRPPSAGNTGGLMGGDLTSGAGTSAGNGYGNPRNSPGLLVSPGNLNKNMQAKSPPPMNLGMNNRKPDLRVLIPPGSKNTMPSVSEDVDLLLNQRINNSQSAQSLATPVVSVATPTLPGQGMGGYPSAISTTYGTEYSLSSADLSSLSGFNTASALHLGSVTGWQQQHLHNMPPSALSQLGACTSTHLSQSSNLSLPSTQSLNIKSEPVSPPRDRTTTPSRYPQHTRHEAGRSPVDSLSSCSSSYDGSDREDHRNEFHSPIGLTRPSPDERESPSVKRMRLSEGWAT

CCTGCCACGCTCCGCTCTAAAAATAA (double strand) [Mef2c target dsDNA 26 bp]
Kd: 480 µM
